# Substitutions are numbered along the chain they refer to.
# B1: 5p-23 (VHH)
# VHH: HVQLVESGGGLVQAGDSLRLSCAASGGTFSSYAMGWFRQVPGKEREFVAAISRGGSTDYADSVKGRFTISRDNAKNTVNLQMNSLKPEDTAVYYCAADRSPLFWGMSQSHGEYDYWGQGTQVTVSS
# B2: 4P-85 (VHH)
# VHH: QVQLVESGGGLVQAGGSLRLSCAVSGRTVSTYGMAWFRQTPGKKERDFVATITRSEGTTFYADSVKGRFTISRDNAKNTVYLQMNSLKIEDTAVYYCAVRRDSSWGYSRDLFEYDDWGQGTQVTVSS
# B3: 5p-118 (VHH)
# VHH: QVQLVESGGGLVQAGESLRLSCAASKPTFRNFAAGWFRQTPGKDREFVAVIEYDGDSAYYADSVKGRFTISRDNAKNTVYLQMNRLKPGDTAVYICAIGGNHYDPSKYYTADEYDYWGQGTQVTVSS
# notes: class II(B) psNb
# B4: R117 (VHH)
# VHH: HVQLVESGGGLVQAGGSLRLSCAAPGRTFSTSAMGWFRQAPGKEREFVAAIDWSNTNIHYADTVKGRFTISTDTAKNTVYLQMNNLKPEDTAVYYCAQGGWGLTQPISVDYWGKGTQVTVSS
# B5: 5p-18 (VHH)
# VHH: EVQLVESGGGLVQAGGSLRLSCEASGRTFSSYAMGWFRQAPGKEREFVAAISQGGSTDYGDSTKGRFTISRDNAKNTVYLQMNSLKPEDTAVYYCAADQTPLRYAYSTRSQDYDYWGQGTQVTVSS
# B6: 5p-38 (VHH)
# VHH: QVQLVESGGGLVQAGGSLRLSCAAAARFSTSAMGWFRQAPGKEREFVAAISWSNTNTHYADTVKGRFTISADTAKETVDLQMNSLKPEDTAVYYCVQGGWGIRQPIIVDYWGKGTQVTVSS
# notes: class II(B) psNb
# B7: R37 (VHH)
# VHH: QVQLVESGGGLVQTGGSLRLSCAASGRTFSNYVMGWFRQAPGKEREFVSSIEWNSENTFYANSVKGRFTISRDNAKNTVYLQMNSLKAEDTAVYYCAADRGSSYYYTRASEYTYWGQGTQVTVSS
# B8: 5p-20 (VHH)
# VHH: HVQLVESGGGLVQAGGSLRLSCAASGGTFSAYAMGWFRQVPGKEREFVAGIARSGSDYYGDSVKGRFIISRDNTKNTVYLQMNSLKAEDTGVYYCAADRAILYHGLSQRTQAYAYWGPGTQVTVSS
# B9: 5p-15 (VHH)
# VHH: QVQLVESGGGLVQPGDSLRLACAASGGTFGYYALGWFRQAPGKEREFVGSITQTGFGTKYADAVKGRFTISRDNAKNTMYLQMNSLKPEDTAVYYCAADPTAQNMGIRDPPYWGQGTQVTVSS
# B10: 4P-74 (VHH)
# VHH: HVQLVESGGGLVQAGGSLRLSCATSGRTFSTYRMSWFRQAPGKEREFVATIIWSVGSTHYADSVKGRFTISRDNAKNMVYLQMNSLKPEDTAVYYCAAQRSDSSSWGYEDDYDYWGQGTQVTVSS
# B11: 5p-60 (VHH)
# VHH: QVQLVESGGGLVQAGGSLRLSCAVSGRTISTFGMGWFRQAPGKEREFVATITRDEDMLLYADSVKGRFTISRDTAKNMVFLQMNSLKIEDTALYYCAVRRDSSWGYSRQSTEYDYWGQGTQVTVSS
# notes: class II(A) psNb
# B12: 4P-76 (VHH)
# VHH: EVQLVESGGGLVQAGDSLRLSCAASERTGINYAMGWFRQAPGKERDFVAAIGWNGSITKYAESVKGRFTLSRDDAMNTVSLQMNSLKPEDTAVYYCAARIGSIANLQYREYEFAYWGQGTQVTVSS
# B13: 4P-89 (VHH)
# VHH: HVQLVESGGGLVQAGGSLRLSCAASGRTLTTYSMAWFRQAPGKEREVVAAITPTGFGTYYADFVKGRFTISRNSAKNTVYLQMDSLKPEDTAVYYCAARSEIIIASPTGGEYDYWGQGTQVTVSS
# B14: R58 (VHH)
# VHH: QVQLVESGGGLVQAGGSLRLSCAASGRDFSSTVMGWFRQAPGKERELVAWMTVTYDITYYADSVKGRFTISKDNAKNTVYLQANSLKPDDTAVYYCASGALRVGSFSPDYWGQGTQVTVSS
# B15: 5p-182 (VHH)
# VHH: EVQLVESGGGLVQTGGSLRLSCALSGYTFSIFPTAWFRQAPGKEREFVAGIRWNGSTRDYTEYADFVKGRFTISRDNAKNMVYLQMISLKPEDTALYYCAASDGVIDGTNANAYRYWGQGTQVTVSS
# notes: class I psNb
# B16: R113 (VHH)
# VHH: HVQLVESGGGLVQPGGSLRLSCAASGRSFNSYLMGWFRQAPGKEREFVAWISGSPHDIIRYRDSVKDRFTISRDNAKNTVYLQMNSLKPVDTAVYYCAVGSLRVGSFSPDYWGQGTQVTVSS
# B17: 5p-35 (VHH)
# VHH: HVQLVESGGGLVQAGGSLRLSCAASGRTFSRYAAGWFRQAPGKEREFVAVIEWDGDSAYYADPVKGRFTISRDNAKNTVYLQMNRLKPEDTAVYICAVGGNHYSRSKYYNLDEYDDWGQGTQVTVSS
# notes: class II(B) psNb
# B18: 5p-132 (VHH)
# VHH: QVQLVESGGGLVQAGGSLRLSCTASGYDFSILAIAWYRQAPGKERELVAAISRVGSTDYADSVKGRFTISRDNTKNTVSLQMDSLKPEDTAVYYCNAGIPMTTVLSGLGFWGQGTQVTVSS
# notes: class IV psNb
# B19: Nb89 (VHH)
# VHH: HVQLVESGGGLVQAGGSLRLSCAASGGTFTTFRMAWFRQTPGKEREFVAASSWGFVNYADPVKGRFTISRDNAKNTVYLEMSSLKTEDTAVYYCAARNPGTGQYDYWGQGTQVTVSS
# B20: Nb20 (VHH)
# VHH: QVQLVESGGGLVQAGGSLRLSCAVSGAGAHRVGWFRRAPGKEREFVAAIGASGGMTNYLDSVKGRFTISRDNAKNTIYLQMNSLKPQDTAVYYCAARDIETAEYIYWGQGTQVTVSS
# B21: Nb21 (VHH)
# VHH: B20 VHH with A27L, S52N, M55N, I105T
# Molecular target: T1, RBDSARS-CoV (SARS-CoV S protein residues 318-510, C-terminal His-tag) (SARS-CoV, UniProt P59594 318-510)
# Experiment: ELISA
row,Binder,IC50
1,B1,10 to 100 nM
2,B2,< 10 nM
3,B3,< 10 nM
4,B4,100 to 1000 nM
5,B5,< 10 nM
6,B6,< 10 nM
7,B7,< 10 nM
8,B8,100 to 1000 nM
9,B9,10 to 100 nM
10,B10,> 8000 nM
11,B11,< 10 nM
12,B12,1000 to 8000 nM
13,B13,10 to 100 nM
14,B14,1000 to 8000 nM
15,B15,1000 to 8000 nM
16,B16,10 to 100 nM
17,B17,< 10 nM

# Molecular target: T2, RBDSARS-CoV-2 (SARS-CoV-2 S protein residues 319-539, C-terminal His-tag) (SARS-CoV-2, UniProt P0DTC2 319-539)
# Experiment: ELISA
row,Binder,IC50
1,B1,< 10 nM
2,B2,< 10 nM
3,B3,< 10 nM
4,B4,< 10 nM
5,B5,< 10 nM
6,B6,< 10 nM
7,B7,< 10 nM
8,B8,< 10 nM
9,B9,10 to 100 nM
10,B10,< 10 nM
11,B18,< 10 nM
12,B11,< 10 nM
13,B12,10 to 100 nM
14,B13,< 10 nM
15,B14,10 to 100 nM
16,B15,< 10 nM
17,B16,< 10 nM
18,B17,< 10 nM

# Molecular target: SARS-CoV-2 spike on pseudotyped virus particles (Wuhan-Hu-1 strain) (SARS-CoV-2, UniProt P0DTC2 14-1273)
# Experiment: cell-based or functional assay
row,Binder,"IC50, pseudotyped SARS-CoV-2 neutralization assay (luciferase)"
1,B19,0.129 nM
2,B20,0.102 nM
3,B21,0.045 nM

# Molecular target: spike of SARS-CoV-2 Munich strain (authentic virus) (SARS-CoV-2)
# Experiment: cell-based or functional assay
row,Binder,PRNT SARS-CoV-2 Munich IC50
1,B3,7.41 nM
2,B6,59.9 nM
3,B11,9.79 nM
4,B15,0.35 nM
5,B17,42.2 nM

# Molecular target: T1, RBDSARS-CoV (SARS-CoV S protein …)
# Experiment: SPR, RBD immobilized on CM5
row,Binder,Kd
1,B3,0.00396 nM
2,B18,304 nM

# Molecular target: T2, RBDSARS-CoV-2 (SARS-CoV-2 S protein …)
# Experiment: SPR, RBD immobilized on CM5
row,Binder,Kd
1,B3,< 0.001 nM
2,B18,0.39 nM

# Molecular target: recombinant RBD of the SARS-CoV-2 S protein (Example 1) (SARS-CoV-2, UniProt P0DTC2 319-541)
# Experiment: SPR, RBD immobilized on CM5
row,Binder,Kd
1,B19,0.108 nM

# — patent publication US20250002563A1 (UNIVERSITY OF PITTSBURGH OF THE COMMONWEALTH SYSTEM OF …, published 2025)
